Test results: patent US20020192785A1 (ONYX PHARMACEUTICALS, published 2002)

Assays:
EE-K-Ras = biological target: T1, EE-K-Ras (UniProt P01116-2 1-188); test: complex formation assay; format for K-Ras not described
T1 construct: Named EE-K-Ras only for the GDP dissociation assay; the result on physical association says 'K-Ras' and its format is not described; not shown: EE (glu-glu) tag

[1] = biological target: RhoA with bound [3H]-GDP or GTPγ[35S] (UniProt P61586 1-193, limits assumed); test: cell-based or functional assay
GST-Rac1 = GST-Rac1 (UniProt P63000 1-192); test: pull-down on GSH agarose (nucleotide depleted or GDP state), anti glu-glu immunoblot
Description: (§1) Comparison of p115 stimulated GDP and GTPγ`S dissociation from RhoA. Increasing amounts of glu-glu tagged •N-p115 (0, 0.02, 0.075, 0.02, 0.4, 1.0 μM) were incubated with 0.3 μM RhoA with bound [³H]-GDP or GTP`[³⁵S] for 10 minutes, and the amount of nucleotide remaining bound to RhoA was determined as described in Hart et al. (39). Specificity of •N-p115 stimulated GDP dissociation. Increasing amounts of •N-p115 (0, 0.25, 0.5, 1.0, 2.0 μM) were incubated for 5 minutes with 2.0 μM GST-RhoA, GST-Rac1, GST-Cdc42Hs or EE-K-Ras prebound with [³H]-GDP and analysed as described in A. Western analysis of complex formation. One μg of glu-glu tagged •N-p115 was incubated with 4 μg of the nucleotide depleted or GDP states of baculovirus expressed GST-Rho, GST-Rac or GST-Cdc42Hs coupled to GSH agarose as described in Hart et al. (18). Proteins, which were recovered on the washed GSH beads, were analsed by SDS-PAGE and immunoblotting. The blot was probed with an affinity purified anti glu-glu monoclonal antibody. 100 ngs of glu-glu tagged •N-p115 was used as a positive control. Kinetic analysis of p115-catalyzed GEF activity on RhoA. […] The level of GTP incorporated onto Rho/min/pmol of •N-p115 was measured as GST-RhoA[`³²P]GTP bound to nitrocellulose filters.

GST-Cdc42Hs = biological target: T2, GST-Cdc42Hs (UniProt P60953 1-191); test: as above
T2 construct: Baculovirus expressed; not shown: glutathione S-transferase (GST) fusion partner
Description: as §1

T2 sequence (P60953 whole entry, the tested form may be a part): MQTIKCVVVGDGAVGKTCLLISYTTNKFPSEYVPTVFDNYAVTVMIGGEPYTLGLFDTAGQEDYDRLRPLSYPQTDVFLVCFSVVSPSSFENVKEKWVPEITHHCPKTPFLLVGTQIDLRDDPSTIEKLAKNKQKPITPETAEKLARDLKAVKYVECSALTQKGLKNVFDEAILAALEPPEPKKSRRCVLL
RhoA with bound [3H]-GDP or GTPγ[35S], sequence (P61586 whole entry): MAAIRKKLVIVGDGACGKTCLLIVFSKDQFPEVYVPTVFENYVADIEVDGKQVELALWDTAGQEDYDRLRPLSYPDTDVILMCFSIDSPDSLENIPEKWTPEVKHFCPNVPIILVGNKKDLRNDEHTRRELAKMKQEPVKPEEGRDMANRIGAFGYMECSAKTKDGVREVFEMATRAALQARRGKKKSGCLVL

B1: glu-glu tagged •N-p115 (amino acids 249-912 of human p115 Rho-GEF) (other, not shown: small tags and cut ends)
chain: VMGNRRSDDPPKTKKGLSSILDAARWNRGEPQVPDFRHLKAEVDAEKPGATDRKGGVGMPSRDRNIGAPGQDTPGVSLHPLSLDSPDREPGADAPLELGDSSPQGPMSLESLAPPESTDEGAETESPEPGDEGEPGRSGLELEPEEPPGWRELVPPDTLHSLPKSQVKRQEVISELLVTEAAHVRMLRVLHDLFFQPMAECLFFPLEELQNIFPSLDELIEVHSLFLDRLMKRRQESGYLIEEIGDVLLARFDGAEGSWFQKISSRFCSRQSFALEQLKAKQRKDPRFCAFVQEAESRPRCRRLQLKDMIPTEMQRLTKYPLLLQSIGQNTEEPTEREKVELAAECCREILHHVNQAVRDMEDLLRLKDYQRRLDLSHLRQSSDPMLSEFKNLDITKKKLVHEGPLTWRVTKDKAVEVHVLLLDDLLLLLQRQDERLLLKSHSRTLTPTPDGKTMLRPVLRLTSAMTREVATDHKAFYVLFTWDQEAQIYELVAQTVSERKNWCALITETAGSLKVPAPASRPKPRPRPSSTREPLLSSSENGNGGRETSPADARTERILSDLLPFCRPGPEGQLAATALRKVLSLKQLLFPAEEDNGAGPPRDGDGVPGGGPLSPARTQEIQENLLSLEETMKQLEELEEEFCRLRPLLSQLGGNSVPQPGCT
notes: Expressed in the baculovirus/Sf9 system and purified on anti-glu-glu Sepharose; also called N-terminal truncated version of p115
- binding result (EE-K-Ras): no binding
- stimulation of the intrinsic dissociation of GDP from RhoA [1]: 10 fold
- binding result (GST-Rac1): no binding
- binding result (GST-Cdc42Hs): no binding
